T1: tandem PALS L27 domains
T1 chain: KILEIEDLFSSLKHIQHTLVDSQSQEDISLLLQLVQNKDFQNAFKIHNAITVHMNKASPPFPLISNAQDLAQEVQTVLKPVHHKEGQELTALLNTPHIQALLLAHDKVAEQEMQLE

T2: tandem L27 domain of rat CASK (L27NL27C_CASK, residues 329-460) (rat, UniProt Q62915 329-460)
T2 sequence: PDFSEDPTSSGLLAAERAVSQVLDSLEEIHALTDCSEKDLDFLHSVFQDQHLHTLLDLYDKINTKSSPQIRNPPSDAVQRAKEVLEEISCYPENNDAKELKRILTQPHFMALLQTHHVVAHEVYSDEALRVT

B1: MALS L27 (in the MALS/PALS/PATJ L27 complex, unpublished data) (domain or fragment)
chain: AALVEPLGLERDVSRAVELLERLQRSGELPPQKLQALQRVLQSRFCSAIREVYEQLYDTLDITGSAEVRAHATAKAT
B2: L27 domain of mouse MALS (L27_MALS, residues 2-78) (domain or fragment)
chain: AALGEPVRLERDICRAIELLEKLQRSGEVPPQKLQALQRVLQSEFCNAVREVYEHVYETVDISSSPEVRANATAKAT
B3: PATJ L27 (domain or fragment)
chain: MPENPAAEKMQVLQVLDRLRGKLQEKGDTTQNEKLSAFYETLKSPLFNQILTLQQSIKQLKGQLS
B4: L27 domain of rat DLG (L27DLG, residues 1-65) (domain or fragment)
chain: MPVRKQDTQRALHLLEEYRSKLSQTEDRQLRSSIERVISIFQSNLFQALIDIQEFYEVTLLDNPK

Key:
tandem PALS L27 domains = target: T1, tandem PALS L27 domains; assay: SEC
[1] = target: T2, tandem L27 domain of rat CASK …; assay: SEC

Row | Binder | stoichiometry N (tandem PALS L27 domains) | stoichiometry N [1]
1 | B1 | 1 | –
2 | B2 | – | 1
3 | B3 | 1 | –
4 | B4 | – | 1
